This series concerns CC1=C(/C=C/C(C)=C/C=C/C(C)=C/C=C/C=C(C)/C=C/C=C(\C)C=O)C(C)(C)CCC1. The series can be described thus: beta-ionone formation, Michaelis-Menten nonlinear fit. To be noted: optimal reaction conditions (pH 9.5 Gly-NaOH, 45 °C reported as optimum), O2 co-substrate. In kind it is biochemical, Olea europaea. An excerpt:
beta-ionone formation, Michaelis-Menten nonlinear fit on OeCCD1

The Km is the concentration of substrate that gives half-maximal velocity. Broadly, the Vmax is the rate approached at saturating substrate. By kcat is commonly meant the number of substrate molecules converted per active site and unit of time at saturation. Usually kcat/Km stands for the second-order rate constant that governs catalysis at low substrate concentration.

Regarding OeCCD1 (Olea europaea var. sylvestris), the Km was determined as 820 µM, the Vmax was 2.3 µmol/min/mg, the turnover number (kcat) came to 3.35 s⁻¹ and the kcat/Km is 4090 M⁻¹ s⁻¹.

The values are drawn from article PMC12292525, “Identification, Cloning, and Functional Characterization of Carotenoid Cleavage Dioxygenase (CCD) from Olea europaea and Ipomoea nil” (Biology, 2025).
